Values of other authors, collected in patent US9994615B2, “Self-regulated peptide hydrogel for insulin delivery” (Massachusetts Institute of Technology, priority 2012, dated 2018).

Key:
[1] = after subcutaneous injection

Row | Molecule | Time basal level of insulin is maintained [1] | pKa
1 | insulin detemir | up to 20 hours | –
2 | OB(O)c1ccccc1 [phenylboronic acid] | – | approximately 8.9
3 | glargine | up to 24 hours | –
